From patent US20040220079A1 (OKLAHOMA MEDICAL RESEARCH FOUNDATION, published 2004) come the findings set out here.

The Ki is the equilibrium dissociation constant of an inhibitor or competing ligand from its target.

The target of assay [1] is T1, recombinant memapsin 2 (human, UniProt P56817 14-454, limits assumed).
T1 construct: also called M2; beta-secretase
Description: comparison of inhibition constants with and without P4 Glu.

Assay [2] concerns the target T1, recombinant memapsin 2. The assay can be described thus: enzyme inhibition with a synthetic fluorogenic peptide substrate.
Assay [3] addresses T1, recombinant memapsin 2. The assay can be described thus: inhibition constant quoted in the crystallisation example.

No end group written: not given here.

T1 sequence (P56817 14-454 limits assumed): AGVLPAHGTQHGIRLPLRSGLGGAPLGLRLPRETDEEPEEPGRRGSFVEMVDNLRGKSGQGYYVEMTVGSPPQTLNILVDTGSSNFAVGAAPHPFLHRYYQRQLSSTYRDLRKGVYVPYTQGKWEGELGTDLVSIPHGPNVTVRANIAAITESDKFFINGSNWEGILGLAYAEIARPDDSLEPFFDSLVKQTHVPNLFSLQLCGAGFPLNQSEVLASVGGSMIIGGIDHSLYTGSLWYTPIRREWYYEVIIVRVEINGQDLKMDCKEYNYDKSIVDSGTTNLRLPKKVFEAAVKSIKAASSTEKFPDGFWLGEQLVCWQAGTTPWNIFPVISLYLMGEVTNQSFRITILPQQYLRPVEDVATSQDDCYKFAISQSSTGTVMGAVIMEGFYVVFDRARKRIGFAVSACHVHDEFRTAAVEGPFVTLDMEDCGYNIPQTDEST

B1: OM99-1 (peptide)
peptide: VNLAAEF
modifications: also: Leu-Ala peptide bond replaced by hydroxyethylene isostere -CH(OH)-CH2-
notes: also called OMR99-1; Val-Asn-Leu*Ala-Ala-Glu-Phe
For B1, the “fold increase in Ki against OM99-2” value in the assay with recombinant memapsin 2 [1] was 10 fold. The Ki in the assay with recombinant memapsin 2 [2] worked out at 30 nM.

B2: OM99-2 (peptide)
peptide: EVNLAAEF
modifications: also: Leu-Ala peptide bond replaced by hydroxyethylene isostere -CH(OH)-CH2- (Leu*Ala)
Turning to B2, the Ki in the assay with recombinant memapsin 2 [3] turned out to be 10 nM.
